Assay results published in IntAct's records for PubMed 14769790.

B1: Ferredoxin-thioredoxin reductase, catalytic chain (Synechocystis sp. (strain PCC 6803 / Kazusa)), Q55389 (parent)
chain: MTSSDTQNNKTLAAMKNFAEQYAKRTDTYFCSDLSVTAVVIEGLARHKEELGSPLCPCRHYEDKEAEVKNTFWNCPCVPMRERKECHCMLFLTPDNDFAGDAQDIPMETLEEVKASMA
partner: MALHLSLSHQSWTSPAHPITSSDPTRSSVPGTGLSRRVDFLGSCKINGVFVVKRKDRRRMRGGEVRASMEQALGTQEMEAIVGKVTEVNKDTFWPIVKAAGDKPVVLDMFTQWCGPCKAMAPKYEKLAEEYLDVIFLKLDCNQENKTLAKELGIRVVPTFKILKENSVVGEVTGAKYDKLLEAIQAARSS
B2: Thioredoxin M-type, chloroplastic (Spinacia oleracea (Spinach)), P07591 (parent)
chain: MAIENCLQLSTSASVGTVAVKSHVHHLQPSSKVNVPTFRGLKRSFPALSSSVSSSSPRQFRYSSVVCKASEAVKEVQDVNDSSWKEFVLESEVPVMVDFWAPWCGPCKLIAPVIDELAKEYSGKIAVYKLNTDEAPGIATQYNIRSIPTVLFFKNGERKESIIGAVPKSTLTDSIEKYLSP
partner: B1 chain
B3: Ferredoxin-thioredoxin reductase, catalytic chain (Synechocystis sp. (strain PCC 6803 / Kazusa)), Q55389 (parent)
chain: B1 chain
partner: B2 chain

Variants of: B1
Settings: with trxf_spiol trxf

| Variant | effect of a mutation on the interaction |
| --- | --- |
| MTSSDTQNNKTLAAMKNFAEQYAKRTDTYFCSDLSVTAVVIEGLARHKEELGSPLCPSRHYEDKEAEVKNTFWNCPCVPMRERKECHCMLFLTPDNDFAGDAQDIPMETLEEVKASMA | increasing interaction |

Variants of: B2
Settings: with ftrc_syny3 ftrC, Q55389

| Variant | effect of a mutation on the interaction |
| --- | --- |
| MAIENCLQLSTSASVGTVAVKSHVHHLQPSSKVNVPTFRGLKRSFPALSSSVSSSSPRQFRYSSVVCKASEAVKEVQDVNDSSWKEFVLESEVPVMVDFWAPWCGPSKLIAPVIDELAKEYSGKIAVYKLNTDEAPGIATQYNIRSIPTVLFFKNGERKESIIGAVPKSTLTDSIEKYLSP | increasing interaction |

Variants of: B3
Settings: with trxm_spiol trxm, P07591

| Variant | effect of a mutation on the interaction |
| --- | --- |
| MTSSDTQNNKTLAAMKNFAEQYAKRTDTYFCSDLSVTAVVIEGLARHKEELGSPLCPCRHYEDKEAEVKNTFWNCPCVPMRERKECYCMLFLTPDNDFAGDAQDIPMETLEEVKASMA | decreasing interaction |
